The target of this assay is BTN3A expressed at the cell surface (human), O00481. Put plainly: cell-based or functional assay.

The record followed here is patent publication US20260265379A1.

Chain of BTN3A expressed at the cell surface (human), O00481 (O00481 30-513): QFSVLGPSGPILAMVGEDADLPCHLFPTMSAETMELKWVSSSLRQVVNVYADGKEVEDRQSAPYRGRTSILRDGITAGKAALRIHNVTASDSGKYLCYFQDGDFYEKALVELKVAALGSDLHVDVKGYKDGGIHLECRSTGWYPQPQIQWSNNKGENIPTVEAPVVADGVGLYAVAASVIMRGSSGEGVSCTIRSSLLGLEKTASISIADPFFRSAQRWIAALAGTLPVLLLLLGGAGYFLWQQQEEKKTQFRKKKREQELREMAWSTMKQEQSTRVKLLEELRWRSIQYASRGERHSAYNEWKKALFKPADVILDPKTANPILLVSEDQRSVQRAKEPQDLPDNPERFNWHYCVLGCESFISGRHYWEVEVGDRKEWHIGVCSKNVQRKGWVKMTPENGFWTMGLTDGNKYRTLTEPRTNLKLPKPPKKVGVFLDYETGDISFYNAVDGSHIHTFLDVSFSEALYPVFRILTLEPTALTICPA

B1: bsAb033 (bispecific antibody, not shown: small tags and cut ends)
heavy (part 1 of 2): QVQLVQSGAEVKKPGASVKLSCKASGYIFTRYYMYWVKQRPGQGLEWIGEINPNNGGTKFNEKFKNRATLTVDKSISTAYMELSRLRSDDTAVYYCSREDDYDGTPFAMDYWGQGTLVTVSS
heavy (part 2 of 2): GGGGSGGGGSGGGGSGGGGSQVQLVQSGVEVKKPGASVKVSCKASGYTFTNYYMYWVRQAPGQGLEWMGGINPSNGGTNFNEKFKNRVTLTTDSSTTTAYMELKSLQFDDTAVYYCARRDYRFDMGFDYWGQGTTVTVSSGGGGSGGGGSGGGGSGGGGSEIVLTQSPATLSLSPGERATLSCRASKGVSTSGYSYLHWYQQKPGQAPRLLIYLASYLESGVPARFSGSGSGTDFTLTISSLEPEDFAVYYCQHSRDLPLTFGGGTKVEIK
heavy: QVQLVQSGAEVKKPGASVKLSCKASGYIFTRYYMYWVKQRPGQGLEWIGEINPNNGGTKFNEKFKNRATLTVDKSISTAYMELSRLRSDDTAVYYCSREDDYDGTPFAMDYWGQGTLVTVSS
light: not shown
As for B1, the Jurkat-Vy9Vo2 TCR MOP activation at 0.5 nM (fold-change to medium) was determined as 7.8 and the Jurkat-Vy9Vo2 TCR MOP activation at 5 nM (fold-change to medium) stood at 7.1.

B2: bsAb022 (bispecific antibody)
heavy: QVQLVQSGVEVKKPGASVKVSCKASGYTFTNYYMYWVRQAPGQGLEWMGGINPSNGGTNFNEKFKNRVTLTTDSSTTTAYMELKSLQFDDTAVYYCARRDYRFDMGFDYWGQGTTVTVSSGGGGSGGGGSGGGGSGGGGSEIVLTQSPATLSLSPGERATLSCRASKGVSTSGYSYLHWYQQKPGQAPRLLIYLASYLESGVPARFSGSGSGTDFTLTISSLEPEDFAVYYCQHSRDLPLTFGGGTKVEIKGGGGSGGGGSGGGGSGGGGSQVQLVQSGAEVKKPGASVKLSCKASGYIFTRYYMYWVKQRPGQGLEWIGEINPNNGGTKFNEKFKNRATLTVDKSISTAYMELSRLRSDDTAVYYCSREDDYDGTPFAMDYWGQGTLVTVSSASTKGPSVFPLAPSSKSTSGGTAALGCLVKDYFPEPVTVSWNSGALTSGVHTFPAVLQSSGLYSLSSVVTVPSSSLGTQTYICNVNHKPSNTKVDKRVEPKSCDKTHTCPPCPAPEFEGGPSVFLFPPKPKDTLMISRTPEVTCVVVDVSHEDPEVKFNWYVDGVEVHNAKTKPREEQYNSTYRVVSVLTVLHQDWLNGKEYKCKVSNKALPASIEKTISKAKGQPREPQVYTLPPSREEMTKNQVSLTCLVKGFYPSDIAVEWESNGQPENNYKTTPPVLDSDGSFFLYSKLTVDKSRWQQGNVFSCSVMHEALHNHYTQKSLSLSPG
light: not shown
In turn, B2 yielded a Jurkat-Vy9Vo2 TCR MOP activation at 0.5 nM (fold-change to medium) of 1.3 and a Jurkat-Vy9Vo2 TCR MOP activation at 5 nM (fold-change to medium) of 1.4.

B3: bsAb025 (bispecific antibody)
heavy: QVQLVQSGVEVKKPGASVKVSCKASGYTFTNYYMYWVRQAPGQGLEWMGGINPSNGGTNFNEKFKNRVTLTTDSSTTTAYMELKSLQFDDTAVYYCARRDYRFDMGFDYWGQGTTVTVSSASTKGPSVFPLAPSSKSTSGGTAALGCLVKDYFPEPVTVSWNSGALTSGVHTFPAVLQSSGLYSLSSVVTVPSSSLGTQTYICNVNHKPSNTKVDKKVEPKSCDKTHTGGSSGSGSGSTGTSSSGTGTSAGTTGTSASTSGSGSGGGGGSGGGGSAGGEIVLTQSPATLSLSPGERATLSCRASKGVSTSGYSYLHWYQQKPGQAPRLLIYLASYLESGVPARFSGSGSGTDFTLTISSLEPEDFAVYYCQHSRDLPLTFGGGTKVEIKRTVAAPSVFIFPPSDEQLKSGTASVVCLLNNFYPREAKVQWKVDNALQSGNSQESVTEQDSKDSTYSLSSTLTLSKADYEKHKVYACEVTHQGLSSPVTKSFNRGECGGGGSGGGGSGGGGSGGGGSQVQLVQSGAEVKKPGASVKLSCKASGYIFTRYYMYWVKQRPGQGLEWIGEINPNNGGTKFNEKFKNRATLTVDKSISTAYMELSRLRSDDTAVYYCSREDDYDGTPFAMDYWGQGTLVTVSSASTKGPSVFPLAPSSKSTSGGTAALGCLVKDYFPEPVTVSWNSGALTSGVHTFPAVLQSSGLYSLSSVVTVPSSSLGTQTYICNVNHKPSNTKVDKRVEPKSCDKTHTCPPCPAPEFEGGPSVFLFPPKPKDTLMISRTPEVTCVVVDVSHEDPEVKFNWYVDGVEVHNAKTKPREEQYNSTYRVVSVLTVLHQDWLNGKEYKCKVSNKALPASIEKTISKAKGQPREPQVYTLPPSREEMTKNQVSLTCLVKGFYPSDIAVEWESNGQPENNYKTTPPVLDSDGSFFLYSKLTVDKSRWQQGNVFSCSVMHEALHNHYTQKSLSLSPG
light: not shown
B3 had a Jurkat-Vy9Vo2 TCR MOP activation at 0.5 nM (fold-change to medium) of 1 and a Jurkat-Vy9Vo2 TCR MOP activation at 5 nM (fold-change to medium) of 1.2.

B4: bsAb026 (bispecific antibody)
heavy: QVQLVQSGAEVKKPGASVKLSCKASGYIFTRYYMYWVKQRPGQGLEWIGEINPNNGGTKFNEKFKNRATLTVDKSISTAYMELSRLRSDDTAVYYCSREDDYDGTPFAMDYWGQGTLVTVSSASTKGPSVFPLAPSSKSTSGGTAALGCLVKDYFPEPVTVSWNSGALTSGVHTFPAVLQSSGLYSLSSVVTVPSSSLGTQTYICNVNHKPSNTKVDKRVEPKSCDKTHTCPPCPAPEFEGGPSVFLFPPKPKDTLMISRTPEVTCVVVDVSHEDPEVKFNWYVDGVEVHNAKTKPREEQYNSTYRVVSVLTVLHQDWLNGKEYKCKVSNKALPASIEKTISKAKGQPREPQVYTLPPSREEMTKNQVSLTCLVKGFYPSDIAVEWESNGQPENNYKTTPPVLDSDGSFFLYSKLTVDKSRWQQGNVFSCSVMHEALHNHYTQKSLSLSPGGGGGSGGGGSGGGGSGGGGSQVQLVQSGVEVKKPGASVKVSCKASGYTFTNYYMYWVRQAPGQGLEWMGGINPSNGGTNFNEKFKNRVTLTTDSSTTTAYMELKSLQFDDTAVYYCARRDYRFDMGFDYWGQGTTVTVSSASTKGPSVFPLAPSSKSTSGGTAALGCLVKDYFPEPVTVSWNSGALTSGVHTFPAVLQSSGLYSLSSVVTVPSSSLGTQTYICNVNHKPSNTKVDKKVEPKSCDKTHTGGSSGSGSGSTGTSSSGTGTSAGTTGTSASTSGSGSGGGGGSGGGGSAGGEIVLTQSPATLSLSPGERATLSCRASKGVSTSGYSYLHWYQQKPGQAPRLLIYLASYLESGVPARFSGSGSGTDFTLTISSLEPEDFAVYYCQHSRDLPLTFGGGTKVEIKRTVAAPSVFIFPPSDEQLKSGTASVVCLLNNFYPREAKVQWKVDNALQSGNSQESVTEQDSKDSTYSLSSTLTLSKADYEKHKVYACEVTHQGLSSPVTKSFNRGEC
light: not shown
The molecule B4 showed a Jurkat-Vy9Vo2 TCR MOP activation at 0.5 nM (fold-change to medium) of 2.9 and a Jurkat-Vy9Vo2 TCR MOP activation at 5 nM (fold-change to medium) of 1.4.

B5: bsAb018 (bispecific antibody)
heavy: EIVLTQSPATLSLSPGERATLSCRASKGVSTSGYSYLHWYQQKPGQAPRLLIYLASYLESGVPARFSGSGSGTDFTLTISSLEPEDFAVYYCQHSRDLPLTFGGGTKVEIKGGGGSGGGGSGGGGSGGGGSQVQLVQSGVEVKKPGASVKVSCKASGYTFTNYYMYWVRQAPGQGLEWMGGINPSNGGTNFNEKFKNRVTLTTDSSTTTAYMELKSLQFDDTAVYYCARRDYRFDMGFDYWGQGTTVTVSSGGGGSGGGGSGGGGSGGGGSQVQLVQSGAEVKKPGASVKLSCKASGYIFTRYYMYWVKQRPGQGLEWIGEINPNNGGTKFNEKFKNRATLTVDKSISTAYMELSRLRSDDTAVYYCSREDDYDGTPFAMDYWGQGTLVTVSSASTKGPSVFPLAPSSKSTSGGTAALGCLVKDYFPEPVTVSWNSGALTSGVHTFPAVLQSSGLYSLSSVVTVPSSSLGTQTYICNVNHKPSNTKVDKRVEPKSCDKTHTCPPCPAPEFEGGPSVFLFPPKPKDTLMISRTPEVTCVVVDVSHEDPEVKFNWYVDGVEVHNAKTKPREEQYNSTYRVVSVLTVLHQDWLNGKEYKCKVSNKALPASIEKTISKAKGQPREPQVYTLPPSREEMTKNQVSLTCLVKGFYPSDIAVEWESNGQPENNYKTTPPVLDSDGSFFLYSKLTVDKSRWQQGNVFSCSVMHEALHNHYTQKSLSLSPG
light: not shown
B5 came in with a Jurkat-Vy9Vo2 TCR MOP activation at 0.5 nM (fold-change to medium) of 1.1 and a Jurkat-Vy9Vo2 TCR MOP activation at 5 nM (fold-change to medium) of 1.7.
